# Results: patent US20160046723A1 (BIONOMICS, published 2016)
# Substitutions are numbered along the chain they refer to.
# B1: humanized anti-LGR4 antibody 1C5HG (antibody, human IgG1, V domains shown)
# VH: EVQLVQSGAEVKKPGESLKISCKGSGYTFTSNFMHWVRQMPGKGLEWIGWIYPGDGDTEYNQKFNGKVTISADKSISTAYLQWSSLKASDTAMYYCARGNSGYNWFAYWGQGTTVTVSS
# VL: EIVMTQSPATLSVSPGERATLSCKASQNINKNLDWYQQKPGQAPRLLIYYTNNLQTGIPARFSGSGSGTEFTLTISSLQSEDFAVYYCYQYKSGNTFGQGTKLEIK
# notes: VH fused to the human IgG1 constant region, VL fused to the human kappa constant region; recombinant IgG from HEK 293 cells
# B2: humanized anti-LGR4 antibody 1C5HE (antibody, human IgG1, V domains shown)
# VH: QVQLVQSGAEVKKPGASVKVSCKASGYTFTSNFMHWVRQAPGQGLEWIGWIYPGDGDTEYNQKFNGKVTMTRDTSTSTVYMELSSLRSEDTAVYYCARGNSGYNWFAYWGQGTTVTVSS
# VL: B1 VL
# notes: as for B1
# B3: anti-LGR4 rat monoclonal antibody 1C5 (antibody, V domains shown)
# VH: QVQLQQSGAELVKPGSSVKISCKASGYTFTSNFMHWIKQQPGNGPEWIGWIYPGDGDTEYNQKFNGKATLIADKSSTTAYMQLRSLTSEDSAVYFCARGNSGYNWFAYWGQGTLVTVSS
# VL: DIQMTQSPPVLSASVGDRVTLSCKASQNINKNLDWYQQKHGEAPRLLIYYTNNLQTGIPSRFSGSGSGTDYTLTISSLQPEDVATYFCYQYKSGNTFGAGTKLELK
# notes: Rat monoclonal antibody purified from hybridoma supernatant; also called 1C5 mAb; biotinylated 1C5
# B4: anti-LGR4 rat monoclonal antibody 8F3 (antibody, V domains shown)
# VH: B3 VH with N32Y, M34I, P45L, L70F, T77S, Y80D, R84N, G99S, N100K, G102A
# VL: B3 VL with Q37H, R45K, T74I, F87Y, K92N, N95P, A99T
# notes: Rat monoclonal antibody purified from hybridoma supernatant; also called 8F3 mAb; biotinylated 8F3
# What was measured:
# [1] = molecular target: T1, recombinant human LGR4 ectodomain-IgG-Fc fusion (R&D Systems) (human, UniProt Q9BXB1 25-540, limits assumed); test: ELISA, plate coated with 2 or 1 ug/mL hLGR4-Fc, detected with HRP anti-human IgG-CH1
# T1 construct: Bought construct; also called Human LGR4-Fc; LGR4-Fc; not shown: IgG Fc; detected with anti-human IgG Fc antibody
# Description: (§1) Binding of the humanized anti-LGR4 antibodies 1C5HE and 1C5HG to human and LGR4 was assessed in vitro using an ELISA-based plate binding assay. The assay measured antibody binding to ELISA plate-bound purified recombinant LGR4 ectodomain-IgG-Fc fusion (R&D Systems), with detection of LGR4-bound antibody with horseradish peroxidase-conjugated anti-human IgG-CH1 secondary antibody.
# [2] = molecular target: T1, recombinant human LGR4 …; test: ELISA, plate coated with 2 ug/mL hLGR4-Fc, detected with HRP anti-human IgG-CH1
# Description: as §1
# [3] = molecular target: T2, recombinant mouse LGR4 ectodomain-IgG-Fc fusion (R&D Systems) (mouse, UniProt A2ARI4 25-540, limits assumed); test: ELISA, plate coated with 0.5 ug/mL mLGR4-Fc, biotinylated antibody detected with streptavidin-HRP
# T2 construct: extracellular domain; Bought construct; also called mouse LGR4-Fc; murine LGR4; not shown: IgG Fc
# Description: (§2) Binding of the anti-LGR4 antibodies to human and murine LGR4 was assessed in vitro using an ELISA-based plate binding assay. The assay measured biotinylated antibody binding to ELISA plate-bound purified recombinant, LGR4 ectodomain-IgG-Fc fusion, with detection of LGR4-bound antibody with horseradish peroxidase-conjugated streptavidin. […] Binding data from two of the antibodies, 8F3 and 1C5 are shown in FIGS. 5A and 5B, respectively.
# [4] = molecular target: T3, human LGR4 on the cell surface (recombinant on CHO cells; endogenous on HEK-293T cells) (human, UniProt Q9BXB1 25-951); test: flow cytometry on CHO-LGR4 cells, PE anti-rat IgG secondary
# T3 construct: also called CHO-LGR4; GPR48
# Description: (§3) A flow cytometry-based assay was used to measure the binding of purified anti-LGR4 antibodies 1C5 and 8F3 to recombinant human LGR4 protein overexpressed on the surface of CHO cells. CHO and CHO-LGR4 cells were stained with serial dilutions of anti-LGR4 antibodies at 4° C. Surface staining was detected with PE-conjugated anti-rat IgG secondary antibodies and analyzed on the FACSCalibur (FIG. 4A and FIG. 4B). […] An antibody control (pooled rat IgG) was used as a negative isotype control in these experiments as well as wild-type CHO without LGR4.
# [5] = molecular target: T2, recombinant mouse LGR4 …; test: BLI (Octet QK), biotinylated antibody on streptavidin tips, LGR4-Fc 5-80 nM in solution, 1:1 global fit, 30 degrees
# Description: (§4) Binding kinetics of LGR4 antibodies to human and mouse LGR4 were determined using label-free plate-based Octet QK instrument (Pall ForteBio, LLC, Menlo Park, Calif.) at 30 degrees. Biotinylated 1C5 and 8F3 LGR4 antibodies were diluted to 5 μg/mL in 1×PBS and immobilized on streptavidin tips (Pall ForteBio, LLC, Menlo Park, Calif.). Plate shaking speed was 1000 rpm. The antibodies were captured on the tips for 150 sec. To establish a baseline, the tips were transferred into wells containing binding buffer (1×PBS, supplemented with 0.1% bovine serum albumin and 0.05% Tween 20) for 60 sec. Human LGR4-Fc (R&D Systems) and mouse LGR4-Fc (R&D Systems) were diluted in binding buffer to 80 nM, 40 nM, 20 nM, 10 nM, 5 nM to make a concentration series. Additionally, a buffer-only well was used as reference. 1C5 and 8F3-coated tips were transferred into wells containing human LGR4 and mouse LGR4 dilution series for 180 sec to measure receptor association. The tips were then dipped into binding buffer for 300 sec to measure receptor dissociation.
# (§5) Data were collected using ForteBio Data Acquisition software v7.1 and analyzed using ForteBio Data Analysis software v7.1. Data were referenced by subtracting signal from the buffer sample, and fitted to a 1:1 binding model using global fitting with unlinked Rmax. The experiment was repeated three times. Sample curve fits, kinetic rate constants, and KD for 1C5 and 8F3 LGR4 antibodies are shown below in Table 5.
# [6] = molecular target: T1, recombinant human LGR4 …; test: as above
# Description: as §4, §5
# [7] = molecular target: T1, recombinant human LGR4 …; test: ELISA, plate coated with 0.5 ug/mL hLGR4-Fc, biotinylated antibody detected with streptavidin-HRP
# Description: as §2
# [8] = molecular target: T2, recombinant mouse LGR4 …; test: BLI (Octet QK), biotinylated antibody on streptavidin tips, LGR4-Fc in solution, 1:1 global fit
# Description: as §4, §5
# [9] = molecular target: T1, recombinant human LGR4 …; test: as above
# Description: as §4, §5
# [10] = molecular target: T1, recombinant human LGR4 …; test: BLI (Octet QK), biotinylated antibody on streptavidin tips, LGR4-Fc in solution; exponent as printed (E+04), KD fits E-04
# Description: as §4
# as §5, with “Sample curve fits, kinetic rate constants, and KD for 1C5 and 8F3 LGR4 antibodies are shown below in Table 5.” left out
# [11] = molecular target: T1, recombinant human LGR4 …; test: BLI (Octet QK), biotinylated antibody on streptavidin tips, LGR4-Fc in solution; receptor printed 'Human LGR4' a second time for 8F3, possibly mouse LGR4
# Description: as §4
# as §5, with “Sample curve fits, kinetic rate constants, and KD for 1C5 and 8F3 LGR4 antibodies are shown below in Table 5.” left out
# [12] = molecular target: T1, recombinant human LGR4 …; test: BLI (Octet QK); receptor printed 'Human LGR4' a second time for 8F3, possibly mouse LGR4
# Description: as §4
# as §5, with “Sample curve fits, kinetic rate constants, and KD for 1C5 and 8F3 LGR4 antibodies are shown below in Table 5.” left out
# [13] = molecular target: T3, human LGR4 on the cell surface …; test: flow cytometry on CHO-LGR4 cells, PE anti-rat IgG secondary [printed FIB. 4B]
# Description: as §3
binder,measurement,setting,value
B1,binding result,[1],binds
B2,EC50 (read off the curve),[2],~2 nM
B3,EC50 (read off the curve),[3],~0.1 nM
same,EC50 (read off the curve),[4],~0.2 nM
same,kon,[5],339000 M⁻¹ s⁻¹
same,kon,[6],438000 M⁻¹ s⁻¹
same,EC50 (read off the curve),[7],~0.1 nM
same,Kd,[8],1.31 nM
same,Kd,[9],1.47 nM
same,koff,[10],0.000635 s⁻¹
B4,EC50 (read off the curve),[3],~0.08 nM
same,kon,[6],397000 M⁻¹ s⁻¹
same,kon,[11],357000 M⁻¹ s⁻¹
same,Kd,[12],0.47 nM
same,EC50 (read off the curve),[13],~0.2 nM
same,EC50 (read off the curve),[7],~0.1 nM
same,Kd,[9],0.47 nM
